Experimental data as given in US20030186841.

Tests used:
[1] = biological target: C7-PBD-VP64 (synthetic/human PR) (UniProt P08046); test: cell_activity; details: +RU486
E2C-HS2(Zif) (synthetic) = test: EMSA
E2C-HS2(F2) (synthetic) = test: EMSA; details: ELISA binding good (Table 11)
E2C-HS2(Sp1) (synthetic) = test: EMSA
[2] = biological target: pmGAA (Zif268-C7 finger 2 variant) finger 2 helix -2 to 6 = SQSSNLVR in Zif268-C7 (synthetic) (UniProt P08046); test: EMSA; details: [none]
[3] = biological target: pGTA (Zif268-C7 finger 2 variant) finger 2 helix -2 to 6 = SQSSSLVR in Zif268-C7 (synthetic) (UniProt P08046); test: EMSA
[4] = biological target: pmGGC (Zif268-C7 finger 2 variant) finger 2 helix -2 to 6 = SDPGHLVR in Zif268-C7 (synthetic) (UniProt P08046); test: EMSA; details: [7-9,26-28]
[5] = biological target: pmGGT (Zif268-C7 finger 2 variant) finger 2 helix -2 to 6 = STSGHLVR in Zif268-C7 (synthetic) (UniProt P08046); test: EMSA; details: [7-9,26-28]
[6] = tested on: E2C(Zif) six-finger (synthetic); test: EMSA
[7] = tested on: E2C(Sp1) six-finger (synthetic); test: EMSA
[8] = biological target: pmGCT (Zif268-C7 finger 2 variant) finger 2 helix -2 to 6 = STSGELVR in Zif268-C7 (synthetic) (UniProt P08046); test: EMSA; details: [none]
[9] = biological target: pGCA (Zif268-C7 finger 2 variant) finger 2 helix -2 to 6 = SQSGDLRR in Zif268-C7 (synthetic) (UniProt P08046); test: EMSA; details: [none]
[10] = biological target: pmGCG (Zif268-C7 finger 2 variant) finger 2 helix -2 to 6 = SRSDDLVR in Zif268-C7 (synthetic) (UniProt P08046); test: EMSA
[11] = tested on: C5(F2) three-finger protein (synthetic); test: EMSA
[12] = tested on: B3(F2) three-finger protein (synthetic); test: EMSA
[13] = tested on: B3B(Sp1)-VP64 (synthetic); test: cell_activity; details: HeLa luciferase
[14] = biological target: pGTG (Zif268-C7 finger 2 variant) finger 2 helix -2 to 6 = SRKDSLVR in Zif268-C7 (synthetic) (UniProt P08046); test: EMSA; details: [7-9,26-28]
[15] = biological target: pmGTG (Zif268-C7 finger 2 variant) finger 2 helix -2 to 6 = SRSDELVR in Zif268-C7 (synthetic) (UniProt P08046); test: EMSA; details: [7-9,26-28]
[16] = biological target: pmGGG (Zif268-C7 finger 2 variant) finger 2 helix -2 to 6 = SRSDKLVR in Zif268-C7 (synthetic) (UniProt P08046); test: EMSA; details: [7-9,26-28]
[17] = biological target: pmGAC (Zif268-C7 finger 2 variant) finger 2 helix -2 to 6 = SDPGNLVR in Zif268-C7 (synthetic) (UniProt P08046); test: EMSA; details: [none]
[18] = biological target: pGGA (Zif268-C7 finger 2 variant) finger 2 helix -2 to 6 = SQRAHLER in Zif268-C7 (synthetic) (UniProt P08046); test: EMSA; details: [7-9,26-28]
[19] = biological target: pGTC (Zif268-C7 finger 2 variant) finger 2 helix -2 to 6 = SDPGALVR in Zif268-C7 (synthetic) (UniProt P08046); test: EMSA; details: [none]
E2C-HS1(Zif) (synthetic) = test: EMSA
E2C-HS1(F2) (synthetic) = test: EMSA; details: ELISA binding good (Table 11)
E2C-HS1(Sp1) (synthetic) = test: EMSA
[20] = biological target: C7 (Zif268-C7) (synthetic) (UniProt P08046); test: EMSA; details: [none]
[21] = tested on: E2C(Sp1)-ERD six-finger repressor (synthetic); test: cell_activity; details: approximately; HeLa luciferase
[22] = tested on: E2C(Sp1) six-finger, no effector domain (synthetic); test: cell_activity; details: approximately; HeLa luciferase, no effector domain
[23] = tested on: E2C-ER//ER-VP64 heterodimer (synthetic); test: cell_activity; details: tamoxifen-dependent; maximum at optimised partner ratio
[24] = tested on: SID-E2C(Sp1) six-finger repressor (synthetic); test: cell_activity; details: approximately; HeLa luciferase
[25] = tested on: E2C-ER//ER-KRAB heterodimer (synthetic); test: cell_activity; details: tamoxifen-dependent; partner ratio 1/10
E2E-PBD-VP64 (synthetic) = test: cell_activity; details: +RU486; basal 18259, control 17209
[26] = biological target: pmGAG (Zif268-C7 finger 2 variant) finger 2 helix -2 to 6 = SRSDNLVR in Zif268-C7 (synthetic) (UniProt P08046); test: EMSA; details: [7-9,26-28]
[27] = biological target: VP16-C7-ER (synthetic/mouse ER) (UniProt P19785); test: cell_activity; details: 4-OH tamoxifen
[28] = tested on: VP16-C7-PR (synthetic/human PR); test: cell_activity; details: RU486
[29] = tested on: E2F-PBD-VP64 heterodimer (synthetic/human PR); test: cell_activity; details: basal; 54986 with RU486; pcDNA control 17209
[30] = biological target: pGCC (Zif268-C7 finger 2 variant) finger 2 helix -2 to 6 = SDCRDLAR in Zif268-C7 (synthetic) (UniProt P08046); test: EMSA; details: [none]
[31] = biological target: pmGTT (Zif268-C7 finger 2 variant) finger 2 helix -2 to 6 = STSGSLVR in Zif268-C7 (synthetic) (UniProt P08046); test: EMSA; details: [none]
[32] = biological target: pGGG (Zif268-C7 finger 2 variant) finger 2 helix -2 to 6 = SRSDHLTR in Zif268-C7 (synthetic) (UniProt P08046); test: EMSA; details: [7-9,26-28]
[33] = tested on: E2(F2) three-finger protein (synthetic); test: EMSA
[34] = tested on: E2C(F2) six-finger (synthetic); test: EMSA
[35] = tested on: E2C(Sp1)-VP16 (synthetic); test: cell_activity; details: HeLa luciferase
[36] = tested on: B3C2(Sp1)-VP64 (synthetic); test: cell_activity; details: HeLa luciferase
[37] = biological target: pGAT (Zif268-C7 finger 2 variant) finger 2 helix -2 to 6 = STSGNLVR in Zif268-C7 (synthetic) (UniProt P08046); test: EMSA; details: [none]

Substance “C7 direct repeat, 4 bp spacer, TATA reporter” has an activity (luciferase units) ([1]; 3966 without) of 6940.
In the case of “C7 inverted repeat, 0 spacer, TATA reporter”, the activity (luciferase units) ([1]; 2921 without) is reported as 10800.
Substance GCCGCAGTGG (double strand) [e2c-hs2] has a Kd (E2C-HS2(Zif) (synthetic)) of 75 nM, a Kd (E2C-HS2(F2) (synthetic)) of 70 nM and a Kd (E2C-HS2(Sp1) (synthetic)) of 25 nM.
Substance “GGACGCTTCCGCGGGTTTTCCCGCGGAAGCGTCC [F2 site GAA]” has a Kd [2] of 0.5 nM.
In the case of “GGACGCTACCGCGGGTTTTCCCGCGGTAGCGTCC [F2 site GTA]”, the Kd ([3]; [none]) is reported as 25 nM.
With “GGACGCGCCCGCGGGTTTTCCCGCGGGCGCGTCC [F2 site GGC]” the Kd [4] was 40 nM and the Kd [5] was greater than 2400 nM.
With “C7 direct repeat, 3 bp spacer, TATA reporter” the activity (luciferase units) ([1]; 3269 without) was 5140.
“C7 everted repeat, 4 bp spacer, TATA reporter” gave an activity (luciferase units) ([1]; 6974 without) of 8900.
“GGGGCCGGAAGTCTGAATG (double strand) [e2c-muths2]” showed a Kd [6] of 200 nM and a Kd [7] of 100 nM.
“GGACGCAGCCGCGGGTTTTCCCGCGGCTGCGTCC [F2 site GCT]” was tested, and the Kd [8] was 65 nM and the Kd [9] was 10 nM.
Substance “C7 inverted repeat, 5 bp spacer, TATA reporter” has an activity (luciferase units) ([1]; 4704 without) of 12400.
“C7 inverted repeat, 3 bp spacer, TATA reporter” showed an activity (luciferase units) ([1]; 7132 without) of 12800.
“GGACGCCGCCGCGGGTTTTCCCGCGGCGGCGTCC [F2 site GCG]” was tested, and the Kd ([10]; [none]) was 9 nM.
In the case of GGAGGCGGGG (double strand) [c5], the Kd [11] is reported as 30 nM.
GGAGGGGAGG (double strand) [b3] showed a Kd [12] of 4 nM.
“C7 everted repeat, 0 spacer, TATA reporter” was tested, and the activity (luciferase units) ([1]; 8750 without) was 17400.
Work on “GCCTGAGAGGGAGCGGTG (double strand) [integrin beta3 promoter reporter, b3b site]” yielded an activity (fold activation) [13] of 12.
With “C7 direct repeat, 1 bp spacer, TATA reporter” the activity (luciferase units) ([1]; 3383 without) was 8200.
Substance “GGACGCCACCGCGGGTTTTCCCGCGGTGGCGTCC [F2 site GTG]” has a Kd [14] of 3 nM, a Kd ([3]; [7-9,26-28]) greater than 1000 nM and a Kd [15] of 15 nM. The Kd [16] was greater than 1400 nM.
“GGACGCGTCCGCGGGTTTTCCCGCGGACGCGTCC [F2 site GAC]” showed a Kd [17] of 3 nM.
In the case of “C7 direct repeat, 0 spacer, TATA reporter”, the activity (luciferase units) ([1]; 4081 without) is reported as 20000.
For “GGACGCTCCCGCGGGTTTTCCCGCGGGAGCGTCC [F2 site GGA]”, the Kd [18] was 3 nM.
“C7 direct repeat, 2 bp spacer, TATA reporter” was tested, and the activity (luciferase units) ([1]; 3417 without) was 8170.
“GGACGCGACCGCGGGTTTTCCCGCGGTCGCGTCC [F2 site GTC]” showed a Kd [19] of 40 nM.
For GGGGCCGGAG (double strand) [e2c-hs1], the Kd (E2C-HS1(Zif) (synthetic)) was 70 nM, the Kd (E2C-HS1(F2) (synthetic)) was 45 nM and the Kd (E2C-HS1(Sp1) (synthetic)) was 35 nM.
“AGTCTGAATGCCGCAGTGG (double strand) [e2c-muths1]” gave a Kd [6] of 200 nM and a Kd [7] of 65 nM.
Work on “GGACGCCCACGCGGGTTTTCCCGCGTGGGCGTCC [F2 site TGG]” yielded a Kd [20] of 0.5 nM.
With “GGACGCTGCCGCGGGTTTTCCCGCGGCAGCGTCC [F2 site GCA]” the Kd [9] was 2 nM.
“GGACGCACCCGCGGGTTTTCCCGCGGGTGCGTCC [F2 site GGT]” showed a Kd [5] of 15 nM.
“GGGGCCGGAGCCGCAGTG (double strand) [E2C site in erbB-2 promoter reporter]” showed an activity [21] of 50 % repression, an activity [22] of 30 % repression and an activity (fold activation) [23] of 5.3. For the same substance, the activity [24] was 80 % repression and the activity (fold repression) [25] was 2.9.
With “GCCGGAGCCATGGGGCCGGAGCC (double strand) [E2E site in erbB-2 promoter reporter]” the activity (luciferase units) (E2E-PBD-VP64 (synthetic)) was 15900.
“GGACGCCTCCGCGGGTTTTCCCGCGGAGGCGTCC [F2 site GAG]” was tested, and the Kd ([10]; [7-9,26-28]) was 6 nM, the Kd [26] was 1 nM and the Kd [15] was 30 nM.
“C7 everted repeat, 3 bp spacer, TATA reporter” gave an activity (luciferase units) ([1]; 9670 without) of 21500.
10xC7 pGL3prom reporter was tested, and the activity (fold induction) [27] was 43 and the activity (fold induction) [28] was 26.
Substance “C7 direct repeat, 5 bp spacer, TATA reporter” has an activity (luciferase units) ([1]; 2597 without) of 5460.
Work on “C7 everted repeat, 5 bp spacer, TATA reporter” yielded an activity (luciferase units) ([1]; 6892 without) of 13100.
“GAGGAGGGCTGCTTGAGGAAGTA (double strand) [erbB-2 promoter reporter, E2F dimer site]” showed an activity (luciferase units) [29] of 61400.
In the case of “C7 everted repeat, 2 bp spacer, TATA reporter”, the activity (luciferase units) ([1]; 7880 without) is reported as 20800.
With “GGACGCGGCCGCGGGTTTTCCCGCGGCCGCGTCC [F2 site GCC]” the Kd [17] was 90 nM, the Kd [30] was 80 nM and the Kd [19] was greater than 4400 nM.
In the case of “GGACGCAACCGCGGGTTTTCCCGCGGTTGCGTCC [F2 site GTT]”, the Kd [31] is reported as 5 nM.
“GGACGCCCCCGCGGGTTTTCCCGCGGGGGCGTCC [F2 site GGG]” was tested, and the Kd [32] was 0.4 nM, the Kd [26] was 45 nM and the Kd [16] was 6 nM.
“C7 everted repeat, 1 bp spacer, TATA reporter” was tested, and the activity (luciferase units) ([1]; 6029 without) was 13600.
In the case of GGGGGCGAGG (double strand) [e2], the Kd [33] is reported as 3 nM.
“GGGGCCGGAGCCGCAGTGG (double strand) [e2c-g]” was tested, and the Kd [34] was 25 nM, the Kd [6] was 1.6 nM and the Kd [7] was 0.5 nM.
Work on “C7 inverted repeat, 1 bp spacer, TATA reporter” yielded an activity (luciferase units) ([1]; 4342 without) of 9530.
For “C7 inverted repeat, 2 bp spacer, TATA reporter”, the activity (luciferase units) ([1]; 6964 without) was 19200.
“GGGGCCGGAGCCGCAGTGA (double strand) [e2c-a]” was tested, and the Kd [6] was 2.3 nM and the Kd [7] was 0.75 nM.
For “GGGGCCGGAGCCGCAGTG (double strand) [erbB-2 promoter reporter, E2C site]”, the activity (fold activation) [35] was 5.
“GGAGGGGACGCGGTGGGT (double strand) [integrin beta3 promoter reporter, b3c2 site]” was tested, and the activity (fold activation) [36] was 22.
“GGACGCATCCGCGGGTTTTCCCGCGGATGCGTCC [F2 site GAT]” showed a Kd [37] of 3 nM.
With “C7 inverted repeat, 4 bp spacer, TATA reporter” the activity (luciferase units) ([1]; 3502 without) was 8860.
